# In patent US9926369B2, “Methods for treating hepatocellular cancer by administering an anti-Ang-2 antibody” (Regeneron Pharmaceuticals, Inc., priority 2009, dated 2018):
# B1: H1M728N: anti-Ang-2 antibody, HCVR/LCVR SEQ ID NOs 290/298 (antibody, V domains shown)
# VH: EVQLVESGGDLVQPGGSLRLSCTASGFTFSKYWMTWVRQAPGRGLEWVANIKEDGNEKYFLDSVKGRFTISRDNAKDLLFLQMNSLRGEDTAVYYCVRDRGIEVAGPFDYWGQGTLVTVSS
# VL: DIQMTQSPSTLSASVGDRVTVTCRASQTIINWLAWYQQKPGKAPKLLISKASSLESGVPSRFSGSGSGTEFTLTISSLQPDDFATYYCQQYNRYWTFGQGTMVEIK
# Tests used:
# [1] = molecular target: biotin-hBA2 binding to hTie-2 (Homo sapiens, UniProt O15123); assay: ELISA blocking of biotinylated hBA2 binding to hTie-2-His; format: biochemical; conditions: 20 pM biotinylated hBA2; average of two separate experiments; read-out: Biotin - hBA2 Average IC50
# Chain of biotin-hBA2 binding to hTie-2 (O15123 with tags, fused parts or gaps): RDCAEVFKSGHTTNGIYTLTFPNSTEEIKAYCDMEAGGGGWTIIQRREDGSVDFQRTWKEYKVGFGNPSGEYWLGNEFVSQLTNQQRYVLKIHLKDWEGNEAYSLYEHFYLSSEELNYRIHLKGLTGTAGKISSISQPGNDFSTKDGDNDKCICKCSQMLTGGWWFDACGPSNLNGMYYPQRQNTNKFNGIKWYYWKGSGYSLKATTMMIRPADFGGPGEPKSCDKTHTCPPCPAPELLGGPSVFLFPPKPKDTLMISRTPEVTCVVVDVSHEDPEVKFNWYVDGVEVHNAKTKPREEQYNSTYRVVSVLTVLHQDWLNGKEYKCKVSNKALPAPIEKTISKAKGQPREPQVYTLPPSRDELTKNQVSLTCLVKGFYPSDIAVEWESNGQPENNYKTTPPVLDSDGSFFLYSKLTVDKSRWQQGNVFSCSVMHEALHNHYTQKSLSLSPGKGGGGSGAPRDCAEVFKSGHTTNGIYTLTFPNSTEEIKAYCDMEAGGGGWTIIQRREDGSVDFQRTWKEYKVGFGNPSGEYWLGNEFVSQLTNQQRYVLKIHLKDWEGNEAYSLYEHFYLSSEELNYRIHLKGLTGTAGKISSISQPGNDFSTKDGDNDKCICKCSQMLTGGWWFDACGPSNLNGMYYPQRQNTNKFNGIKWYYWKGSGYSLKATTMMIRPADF
# Method: For this experiment, human Tie-2 conjugated to a histidine tag (hTie-2-His; SEQ ID NO:526) was used in a similar fashion to the hTie-2-mFc described above. Antibody concentrations from 5 nM were serially diluted three-fold. […] An average IC50 value for each antibody was calculated based on two separate experiments.
# [2] = system: Tie-2 phosphorylation (Ang-2-mediated) in HUVECs; assay: Inhibition of Ang-2-mediated Tie-2 phosphorylation in FOXO1-adenovirus infected HUVECs; format: cell-based, human; conditions: antibody 0.5 μg/ml
# Method: Further, the inventors have shown that infection of HUVECs with an adenovirus encoding FOXO1 results in expression and secretion of Ang-2, followed by activation of Tie-2 phosphorylation (Daly et al. 2006 PNAS 103:15491).
# Anti-Ang-2 antibodies were tested for their ability to inhibit Tie-2 phosphorylation. Briefly, 7×10^5 HUVECs (Vec Technologies, Rensselaer, N.Y.) were plated in 6 cm cell culture dishes in 3.5 ml of MCDB131 Complete medium (Vec Technologies, Rensselaer, N.Y.). The following day, the cells were washed with Opti-MEM (Invitrogen Corp., Carlsbad, Calif.) and fed with 2 ml of Opti-MEM. […] Cells were then washed with MCDB131 and fed with 2 ml of MCDB131 containing anti-Ang-2 antibodies at a concentration of 0.5 μg/ml. At twenty hours post infection, cells were lysed and subjected to Tie-2 immunoprecipitation as described by Daly et al., Proc. Natl. Acad. Sci. USA 103:15491-15496 (2006). Immunoglobulin was collected on protein A/G beads (Santa Cruz Biotechnology, Santa Cruz, Calif.) for one hour. Beads were washed with cold lysis buffer and resuspended in SDS sample buffer for analysis by western blot with antibodies specific for phosphotyrosine (Millipore, Billerica, Mass.) or Tie-2. Signals were detected using HRP-conjugated secondary antibodies and ECL reagents (GE Healthcare, Piscataway, N.J.). X-Ray films were scanned and the phospho-Tie-2 and Tie-2 signals were quantified using ImageJ software. The phospho-Tie-2/Tie-2 ratios were used to determine the % inhibition for each anti-Ang-2 antibody (i.e. Percent inhibition=Reduction in phospho-Tie-2/Tie-2 as compared to control).
molecule,measurement,setting,value
B1,IC50,[1],0.0141 nM
same,Inhibition of Tie-2 phosphorylation,[2],++ (50-75%)
